Test results from US20210002376A1.
Read-outs that look alike come from different tables or passages of the source.

Tests used:
HER3-Fc fusion protein [1] = target: HER3-Fc fusion protein (UniProt P21860); test: ELISA, coated HER3-Fc, anti-human Fab-HRP
HER3-His = HER3-His (UniProt P21860); test: ELISA, coated His-tagged HER3 ECD, anti-human Fc-HRP
HER3-Fc fusion protein [2] = target: HER3-Fc fusion protein (UniProt P21860); test: ELISA, coated HER3-Fc, anti-human Fab-HRP; remark: listed apart in the source

EC50 (HER3-Fc fusion protein [1]): 0.21 nM | EC50 (HER3-His): 0.23 nM | EC50 (HER3-Fc fusion protein [2]): 0.2 nM
B1: 3-43-IgG (antibody, from a related filing, V domains shown)
VH: QVQLQQSGPGLVKPSQTLSLTCAISGDSVSSNRAAWNWIRQSPSRGLEWLGRTYYRSKWYNDYAQSLKSRITINPDTPKNQFSLQLNSVTPEDTAVYYCARDGQLGLDALDIWGQGTMVTVSS
VL: QAGLTQPPAVSVAPGQTASITCGRDNIGSRSVHWYQQKPGQAPVLVVYDDSDRPAGIPERFSGSNYENTATLTISRVEAGDEADYYCQVWGITSDHVVFGGGTKLTVLC
